In patent US20120108492A1 (REGENTS OF THE UNIVERSITY OF COLORADO, published 2012):

Biological target: wild-type recombinant EBV gp350 (residues 1-470 of EBV gp350/220, BCCP, myc, hexa-histidine) (Epstein-Barr virus (B95-8); Escherichia …, UniProt P03200 1-470; P0ABD8 70-156)
Test: ELISA, wild-type gp350 on plate, MBP-CR2 SCR1-2 mutant in solution

Sequence of wild-type recombinant EBV gp350 (residues 1-470 of EBV gp350/220, BCCP, myc, hexa-histidine) (P03200 1-470, tags or fused parts left off): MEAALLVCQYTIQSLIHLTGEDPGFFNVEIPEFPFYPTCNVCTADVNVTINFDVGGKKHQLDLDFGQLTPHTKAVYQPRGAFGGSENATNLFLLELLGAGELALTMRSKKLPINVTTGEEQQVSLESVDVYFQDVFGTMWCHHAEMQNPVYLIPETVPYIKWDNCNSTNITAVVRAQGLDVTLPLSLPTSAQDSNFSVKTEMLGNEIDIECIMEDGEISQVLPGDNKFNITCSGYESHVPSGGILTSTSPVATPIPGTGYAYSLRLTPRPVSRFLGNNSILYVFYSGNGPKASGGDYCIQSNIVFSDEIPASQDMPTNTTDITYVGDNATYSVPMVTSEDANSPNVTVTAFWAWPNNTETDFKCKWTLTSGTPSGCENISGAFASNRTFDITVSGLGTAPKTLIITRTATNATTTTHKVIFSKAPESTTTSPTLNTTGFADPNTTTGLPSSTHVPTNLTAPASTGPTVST

B1: MBP-CR2 SCR1-2 K67A (receptor)
chain: ISCGSPPPILNGRISYYSTPIAVGTVIRYSCSGTFRLIGEKSLLCITKDKVDGTWDKPAPKCEYFNAYSSCPEPIVPGGYKIRGSTPYRHGDSVTFACKTNFSMNGNKSVWCQANNMWGPTRLPTCVSVFPLE
notes: not shown: MBP tag encoded by pMAL-p2x and the vector linker between MBP and CR2
- decrease in EBV gp350 binding relative to wild-type: ~20%
